Biological target: the molecule itself
Assay: SEC; Superdex Increase 200 10/300GL, protein in PBS after His Trap purification; step run to remove aggregates

B1: wild-type hLYVE-1 Δ238 His10 (soluble full ectodomain of human LYVE-1) (domain or fragment, UniProt Q9Y5Y7 20-238, looked up)
chain: LVQGSLRAEELSIQVSCRIMGITLVSKKANQQLNFTEAKEACRLLGLSLAGKDQVETALKASFETCSYGWVGDGFVVISRISPNPKCGKNGVGVLIWKVPVSRQFAAYCYNSSDTWTNSCIPEIITTKDPIFNTQTATQTTEFIVSDSTYSVASPYSTIPAPTTTPPAPASTSIPRRKKLICVTEVFMETSTMSTETEPFVENKAAFKNEAAGFGGVPT
notes: signal peptide in the construct; Obtained as a mixture of monomer and disulfide-linked homodimer; The protein is glycosylated, made in CHO cells; also called hLYVE-1 full wild-type ectodomain; hLYVE-1 Δ238 with a His10 single tag; source: CHO-K1, transfected (pEE14), culture supernatant, purified (His Trap, size exclusion chromatography); not shown: His10, C-terminal, kept
- binding result: binds
